Tests used:
Assay in all cases: purified protein
[1] = test system: T1, COc1cc(C=NN=Cc2cc(OC)c(O)c(OC)c2)cc(OC)c1O; assay type: biochemical, Pestalotiopsis sp. KF079; settings: pH 5, 30 °C
T1 construct: secreted by Aspergillus niger D15#26, purified

[2] = test system: CCn1c(=NN=c2sc3cc(S(=O)(=O)O)ccc3n2CC)sc2cc(S(=O)(=O)O)ccc21; settings: pH 4, 30 °C
[3] = test system: COc1cc(-c2ccc(N)c(OC)c2)ccc1N; settings: pH 5, 30 °C

Row | Substance | Km [1] [µM] | kcat [1] [s⁻¹] | kcat/Km [1] [M⁻¹ s⁻¹] | Km [2] [µM] | kcat [2] [s⁻¹] | kcat/Km [2] [M⁻¹ s⁻¹] | Km [3] [µM] | kcat [3] [s⁻¹] | kcat/Km [3] [M⁻¹ s⁻¹]
1 | PsLac1 (Pestalotiopsis sp.) | 4 | 0.365 | 82900 | 24 | 0.696 | 29200 | 647 | 0.057 | 89
2 | PsLac2 (Pestalotiopsis sp.) | 101 | 0.573 | 5670 | 100 | 0.431 | 4330 | 144 | 0.748 | 5190

Reference: paper PMC6515530, “Characterization and Dye Decolorization Potential of Two Laccases from the Marine-Derived Fungus Pestalotiopsis sp” (International Journal of Molecular Sciences, 2019)
